Assay results as given in US20250115668A1 (BIOCYTOGEN PHARMACEUTICALS BEIJING, published 2025).
Like-named read-outs stand apart in the source and are kept apart here.

T1: Human OX40 protein having a His-Tag (human, UniProt P43489 29-216, limits assumed)
T1 construct: Bought recombinant protein; also called hOX40-His; hOX40; not shown: His tag
T1 sequence (looked up): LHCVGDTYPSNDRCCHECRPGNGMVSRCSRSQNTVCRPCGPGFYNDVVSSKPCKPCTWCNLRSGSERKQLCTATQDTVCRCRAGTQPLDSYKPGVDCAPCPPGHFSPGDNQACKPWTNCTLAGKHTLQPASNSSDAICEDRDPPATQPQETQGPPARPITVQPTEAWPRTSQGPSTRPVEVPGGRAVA

T2: human OX40 expressed on transfected cells (human, UniProt P43489 29-277)
T2 construct: whole, on cells; also called hOX40 on HEK293T-hCTLA4-hOX40 cells; on Jurkat-luc-hOX40
T2 sequence (looked up): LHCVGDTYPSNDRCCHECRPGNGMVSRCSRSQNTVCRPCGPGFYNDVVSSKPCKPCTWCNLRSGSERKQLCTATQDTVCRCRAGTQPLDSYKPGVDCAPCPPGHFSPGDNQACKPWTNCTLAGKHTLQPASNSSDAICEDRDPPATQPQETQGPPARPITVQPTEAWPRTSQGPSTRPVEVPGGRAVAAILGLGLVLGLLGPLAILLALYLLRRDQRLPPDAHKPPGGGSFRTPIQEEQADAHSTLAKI

T3: human CTLA4 expressed on transfected cells (human, UniProt P16410 36-223)
T3 construct: whole, on cells; also called hCTLA4 on HEK293T-hCTLA4-hOX40 cells; on Jurkat-luc-hCTLA4
T3 sequence (looked up): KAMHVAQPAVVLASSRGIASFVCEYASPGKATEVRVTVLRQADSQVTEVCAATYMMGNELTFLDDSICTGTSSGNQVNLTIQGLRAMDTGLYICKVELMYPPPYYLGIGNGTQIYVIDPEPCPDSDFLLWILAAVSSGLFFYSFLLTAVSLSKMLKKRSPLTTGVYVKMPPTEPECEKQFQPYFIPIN

T4: Human CTLA4 protein having a His-Tag (human, UniProt P16410 37-162, limits assumed)
T4 construct: Bought recombinant protein; also called hCTLA4-His; hCTLA4; not shown: His tag
T4 sequence (looked up): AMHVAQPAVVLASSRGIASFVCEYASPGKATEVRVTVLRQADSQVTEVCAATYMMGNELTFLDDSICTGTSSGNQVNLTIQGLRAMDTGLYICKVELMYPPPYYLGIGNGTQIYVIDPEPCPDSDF

B1: OX-4C8-IgG1 (antibody, V domains shown)
VH: QVQLVESGPTLVKPTQTLTLTCTFSGFSLSTTRVGVGWIRQPPGKALEWLALIYWDDDKRYSPSLKNRLTLTKDTSKNQVVLTMTNMDPVDTATYYCAHFGSGTYYNVDY
VL: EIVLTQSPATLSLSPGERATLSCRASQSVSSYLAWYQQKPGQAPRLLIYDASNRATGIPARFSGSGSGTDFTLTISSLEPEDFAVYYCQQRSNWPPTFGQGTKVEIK
notes: Human anti-OX40 antibody; IgG1 constant regions
B2: OX-H7-CT-3D2-IgG1-SI (bispecific antibody, V domains shown)
VH 1: QITLKESGPTLVKPAQTLTLTCTFSGFSLSTSGVGVGWIRQPPGKALEWLALIYWDDDKLYSPSLKSRLTITKDTSKNQVVLAMTNMDPVDTATYYCAHSQLGRDDYWGQGTLVTVSS
VH 2: QVQLVESGPGLVKPSETLSLTCTVSGDSIRSSHYYWGWIRQPPGKGLEWIGSIYFNGITYYSPSLKSRVTISVDTSKNQFSLKLTSVTAADTAVFYCARHNNYYDSSGYWYYFDYWGQGTLVTVSS
VL: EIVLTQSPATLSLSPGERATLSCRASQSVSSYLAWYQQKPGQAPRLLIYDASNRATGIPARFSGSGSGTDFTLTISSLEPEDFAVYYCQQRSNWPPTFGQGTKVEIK
notes: SI mutations (S239D, I332E, EU)
B3: CT-3D2-IgG1 (antibody, V domains shown)
VH: B2 VH 2
VL: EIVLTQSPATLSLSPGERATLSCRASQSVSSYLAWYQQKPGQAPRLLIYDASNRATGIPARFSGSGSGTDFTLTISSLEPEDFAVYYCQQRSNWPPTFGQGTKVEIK
notes: Human anti-CTLA4 antibody from RenLite mice
B4: OX-4C8-CT-3D2-IgG1-SI (bispecific antibody, V domains shown)
VH 1: QVQLVESGPTLVKPTQTLTLTCTFSGFSLSTTRVGVGWIRQPPGKALEWLALIYWDDDKRYSPSLKNRLTLTKDTSKNQVVLTMTNMDPVDTATYYCAHFGSGTYYNVDYWGQGTLVTVSSAS
VH 2: B2 VH 2
VL: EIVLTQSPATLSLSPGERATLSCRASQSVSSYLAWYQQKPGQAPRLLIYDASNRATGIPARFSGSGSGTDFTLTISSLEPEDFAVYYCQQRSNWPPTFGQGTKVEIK
notes: 1+1 knobs-into-holes human IgG1 with common light chain; SI mutations (S239D, I332E, EU)
B5: OX-H8-CT-3D2-IgG1-SI (bispecific antibody, V domains shown)
VH 1: QITLKESGPTLVKPTQTLTLTCTFSGFSLSSRGVGVGWIRQPPGKALEWLALIYWDDDKRYSPSLKSRLTITKDTSKNQVVLTMANMDPVDTATYYCAHSHRGYENFWGQGTLVTVSS
VH 2: B2 VH 2
VL: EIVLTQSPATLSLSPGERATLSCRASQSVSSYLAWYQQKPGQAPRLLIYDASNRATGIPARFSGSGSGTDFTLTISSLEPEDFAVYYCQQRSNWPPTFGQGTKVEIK
notes: as for B2
B6: OX-H8-IgG1 (antibody, V domains shown)
VH: B5 VH 1
VL: EIVLTQSPATLSLSPGERATLSCRASQSINSYLAWYQQNPGQAPRLLIYLASNRATGIPARFSGSGSGTDFTLTITSLEPEDFAVYYCQQRSDWPPTFGQGTKVEIK
notes: Monoclonal anti-OX40 antibody, IgG1 constant regions

Experiments:
[1] = target: T1, Human OX40 protein having a His-Tag; assay: SPR Biacore 8K, Protein A chip; antibody captured, antigen analyte
[2] = target: T2, human OX40 expressed on transfected …; assay: flow cytometry (MFI, anti-hIgG-Fc-Alexa Fluor 647) on HEK293T-hCTLA4-hOX40 cells co-expressing human CTLA4 and human OX40
[3] = target: T1, Human OX40 protein having a His-Tag; assay: SPR Biacore 8K, Protein A chip; antibody captured, antigen analyte; remark: listed apart in the source
[4] = target: T5, Cynomolgus/Rhesus macaque OX40/TNFRSF4/CD134 Protein, His Tag (Cynomolgus/Rhesus macaque); assay: as above
T5 construct: Bought recombinant protein; also called fasOX40-His; monkey OX40

[5] = target: T2, human OX40 expressed on transfected …; assay: flow cytometry (MFI, anti-hIgG-Fc-Alexa Fluor 647) on HEK293T-hCTLA4-hOX40 cells co-expressing human CTLA4 and human OX40; the bispecific can bind both antigens on the same cell, signal not separable by target
[6] = target: T3, human CTLA4 expressed on transfected …; assay: as above
[7] = target: T4, Human CTLA4 protein having a His-Tag; assay: SPR Biacore 8K, Protein A chip; antibody captured, antigen analyte
[8] = target: T3, human CTLA4 expressed on transfected …; assay: flow cytometry (MFI, anti-hIgG-Fc-Alexa Fluor 647) on HEK293T-hCTLA4-hOX40 cells co-expressing human CTLA4 and human OX40
[9] = target: T3, human CTLA4 expressed on transfected …; assay: as above; remark: listed apart in the source
[10] = target: T3, human CTLA4 expressed on transfected …; assay: as above; remark: listed apart in the source
[11] = target: T2, human OX40 expressed on transfected …; assay: flow cytometry (MFI, anti-hIgG-Fc-Alexa Fluor 647) on HEK293T-hCTLA4-hOX40 cells co-expressing human CTLA4 and human OX40; the bispecific can bind both antigens on the same cell, signal not separable by target; remark: listed apart in the source
[12] = target: T3, human CTLA4 expressed on transfected …; assay: as above; remark: listed apart in the source
[13] = target: T2, human OX40 expressed on transfected …; assay: as above; remark: listed apart in the source
[14] = target: T3, human CTLA4 expressed on transfected …; assay: as above; remark: listed apart in the source
[15] = target: T2, human OX40 expressed on transfected …; assay: flow cytometry (MFI, anti-hIgG-Fc-Alexa Fluor 647) on HEK293T-hCTLA4-hOX40 cells co-expressing human CTLA4 and human OX40; remark: listed apart in the source

Binder	Kd [1] [nM]	koff [1] [s⁻¹]	kon [1] [M⁻¹ s⁻¹]	Kd [3] [nM]	koff [3] [s⁻¹]	kon [3] [M⁻¹ s⁻¹]	Kd [4] [nM]	koff [4] [s⁻¹]	kon [4] [M⁻¹ s⁻¹]	also measured
B1	65.4	0.00738	113000	–	–	–	–	–	–	EC50 (read off the curve) [2]: ~0.3 µg/mL
B2	–	–	–	182	0.00169	9260	163	0.001	6170	EC50 (read off the curve) [5]: ~1 µg/mL; EC50 (read off the curve) [6]: ~1 µg/mL
B3	–	–	–	–	–	–	–	–	–	Kd [7]: 17.1 nM; koff [7]: 0.00079 s⁻¹; kon [7]: 46200 M⁻¹ s⁻¹; EC50 (read off the curve) [8]: ~2 µg/mL; EC50 (read off the curve) [9]: ~2 µg/mL; EC50 (read off the curve) [10]: ~2 µg/mL
B4	–	–	–	17.6	0.00258	147000	6.4	0.0037	578000	EC50 (read off the curve) [11]: ~2 µg/mL; EC50 (read off the curve) [12]: ~2 µg/mL
B5	–	–	–	16	0.00784	490000	18.9	0.00966	510000	EC50 (read off the curve) [13]: ~1 µg/mL; EC50 (read off the curve) [14]: ~1 µg/mL
B6	8.68	0.00441	508000	–	–	–	–	–	–	EC50 (read off the curve) [15]: ~7 µg/mL
